From the DeepSol protein solubility set

test: soluble on expression in E. coli; label from the status in PepcDB or PDB records

Sequence | soluble on expression in E. coli
VGRATQSAKELDVKIKNVIRNVHILLKQISGTDGEGNNVPSGDFSREWAEAQRMMRELRNRNFGKHLREAEADKRESQLLLNRIRTWQKTHQGENNGLANSIRDSLNEYEAKLSDLRARLQEAAAQAKQANGLNQENERALGAIQRQVKEINSLQSDFTKYLTTADSSLLQTNIALQLMEKSQKEYEKLAASLNEARQELSDKVRELSRSAGKTSLVEEAEKHARSLQELAKQLEEIKRNASGDELVRCAVDAATAYENILNAIKAAEDAANRAASASESALQTVIKEDLPRKAKTLSSNSDKLLNEAKMTQKKLKQEVSPALNNLQQTLNIVTVQKEVIDTNLTTLRDGLHGIQRGDIDAMISSAKSMVRKANDITDEVLDGLNPIQTDVERIKDTYGRTQNEDFKKALTDADNSVNKLTNKLPDLWRKIESINQQLLPLGNISDNMDRIRELIQQARDAASKVAVPMRFNGKSGVEVRLPNDLEDLKGYTSLSLFLQRPNSRENGGTENMFVMYLGNKDASRDYIGMAVVDGQLTCVYNLGDREAELQVDQILTKSETKEAVMDRVKFQRIYQFARLNYTKGATSSKPETPGVYDMDGRNSNTLLNLDPENVVFYVGGYPPDFKLPSRLSFPPYKGCIELDDLNENVLSLYNFKKTFNLNTTEVEPCRRRKEESDKNYFEGTGYARVPTQPHAPIPTFGQTIQTTVDRGLLFFAENGDRFISLNIEDGKLMVRYKLNSELPKERGVGDAINNGRDHSIQIKIGKLQKRMWINVDVQNTIIDGEVFDFSTYYLGGIPIAIRERFNISTPAFRGCMKNLKKTSGVVRLNDTVGVTKKCSEDWKLVRSASFSRGGQLSFTDLGLPPTDHLQASFGFQTFQPSGILLDHQTWTRNLQVTLEDGYIELSTSDSGGPIFKSPQTYMDGLLHYVSVISDNSGLRLLIDDQLLRNSKRLKHISSSRQSLRLGGSNFEGCISNVFVQRLSLSPEVLDLTSNSLKRDVSLGGCSLNKPPFLMLLKGSTRFNKTKTFRINQLLQDTPVASPRSVKVWQDACSPLPKTQANHGALQFGDIPTSHLLFKLPQELLKPRSQFAVDMQTTSSRGLVFHTGTKNSFMALYLSKGRLVFALGTDGKKLRIKSKEKCNDGKWHTVVFGHDGEKGRLVVDGLRAREGSLPGNSTISIRAPVYLGSPPSGKPKSLPTNSFVGCLKNFQLDSKPLYTPSSSFGVSSCLGGPLEKGIYFSEEGGHVVLAHSVLLGPEFKLVFSIRPRSLTGILIHIGSQPGKHLCVYLEAGKVTASMDSGAGGTSTSVTPKQSLCDGQWHSVAVTIKQHILHLELDTDSSYTAGQIPFPPASTQEPLHLGGAPANLTTLRIPVWKSFFGCLRNIHVNHIPVPVTEALEVQGPVSLNGCPDQ | soluble
MATVTTHASASIFRPCTSKPRFLTGSSGRLNRDLSFTSIGSSAKTSSFKVEAKKGEWLPGLASPDYLTGSLAGDNGFDPLGLAEDPENLKWFVQAELVNGRWAMLGVAGMLLPEVFTKIGIINVPEWYDAGKEQYFASSSTLFVIEFILFHYVEIRRWQDIKNPGSVNQDPIFKQYSLPKGEVGYPGGIFNPLNFAPTQEAKEKELANGRLAMLAFLGFVVQHNVTGKGPFENLLQHLSDPWHNTIVQTFN | soluble
MFQQLSARLQEAIGRLRGRGRITEEDLKATLREIRRALMDADVNLEVARDFVERVREEALGKQVLESLTPAEVILATVYEALKEALGGEARLPVLKDRNLWFLVGLQGSGKTTTAAKLALYYKGKGRRPLLVAADTQRPAAREQLRLLGEKVGVPVLEVMDGESPESIRRRVEEKARLEARDLILVDTAGRLQIDEPLMGELARLKEVLGPDEVLLVLDAMTGQEALSVARAFDEKVGVTGLVLTKLDGDARGGAALSARHVTGKPIYFAGVSEKPEGLEPFYPERLAGRILGMGDIESILEKVKGLEEYDKIQKKMEDVMEGKGKLTLRDVYAQIIALRKMGPLSKVLQHIPGLGIMLPTPSEDQLKIGEEKIRRWLAALNSMTYKELENPNIIDKSRMRRIAEGSGLEVEEVRELLEWYNNMNRLLKMVK | soluble
GPGSMKKFMLNTKASLGLVGEKTVDEDYNKRSASLKALNEALNEYSTAMDKAKHAMREVMHSLGKASKAFEKLNSGSCIPEPLKDFSEDFKKAIEHLQQYALQEFMNTMETTVIKTGHAIRADYEECVRVDQQRQKTVNEYDVYRSAVDKKETEYAKKGKDLKESKTYEEDTKTRDELKADYEASDKLFKSSHDALESNVVSKGRLCMREFFCCTSEFLSALSTEMKRLHEKSLLLGA | not soluble
PPKWKVKKQKLAEKAAREAELTAKKAQARQALSIYLNLPTLDEAVNTLKPWWPGLFDGDTPRLLACGIRDVLLEDVAQRNIPLSHKKLRRAMKAITRSESYLCAMKAGACRYDTEGYVTEHISQEEEVYAAERLDKIRRQNRIKAELQAVLD | soluble
GPGSMAALAALEKEVADLKRVRVFNETVRTGVERVLASLPSPENEKDTSTKVRILLLRSQATLLLPRVSREAEKDLNAALKLQPGSATTWVELSECLLRRNAFKEACDALDNALRVNPAHTEALCKYSQIQRNRCGGEGVTADQRKAYLEDAVAKARAAVGSNVDDADAWNTLALSLLSKVTLEGMTFDGVRKALAAMQQAERKCPEDPDVPYNKAVLESLLGHFGAAAMDYWRAHALDKDRLKGTRHLSEENAKVLLRAQSRMRTSSGIGKRDFQRICTRIEQAHKKYTQSTSAKVVGVLDIVTEPTMQPVTLLVSDGKGDFVLLLLHEVRPTCFKIGDVIAYPVTTPVETITHNIVACPGVEEEPLKLTLSHAYPNPKSILVNGQPLPSSAHVPLQMSSRLFA | soluble
GETSVPPGSALVGPSCVMDDFRDPQRWKECAKQGKMPCYFDLIEENVYLTERKKNKSHRDIKRMQCECTPLSKDERAQGEIACGEDCLNRLLMIECSSRCPNGDYCSNRRFQRKQHADVEVILTEKKGWGLRAAKDLPSNTFVLEYCGEVLDHKEFKARVKEYARNKNIHYYFMALKNDEIIDATQKGNCSRFMNHSCEPNCETQKWTVNGQLRVGFFTTKLVPSGSELTFDYQFQRYGKEAQKCFCGSANCRGYLGGENRVSIRAAGGKMKKERSRK | soluble
MFRVITRGAHTAASRQALIEKIIRVDHAGELGADRIYAGQLAVLQGSSVGSVIKKMWDEEKEHLDTMERLAAKHNVPHTVFSPVFSVAAYALGVGSALLGKEGAMACTIAVEELIGQHYNDQLKELLADDPETHKELLKILTRLRDEELHHHDTGVEHDGMKAPAYSALKWIIQTGCKGAIAIAEKI | not soluble
MADRDATLWASHEKMLSQPLKDSDAEVYSIIKKESNRQRVGLELIASENFASRAVLEALGSSLNNKYSEGYPGQRYYGGTEFIDELEMLCQKRALQAYHLDPQCWGVNVQPYSGSPANFAVYTALVEPHGRIMGLDLPDGGHLTHGFMTDKKKISATSIFFESMPYKVYPETGYINYDQLEENASLFHPKLIIAGTSCYSRNLDYARLRKIADDNGAYLMADMAHISGLVAAGVVPSPFEHCHVVTTTTHKTLRGCRAGMIFYRKGVRSVDPKTGKETYYELESLINSAVFPGLQGGPHNHAIAGVAVALKQAMTTEFKIYQLQVLANCRALSDALTELGYKIVTGGSDNHLILMDLRSKGTDGGRAEKVLEACSIACNKNTCPGDKSALRPSGLRLGTPALTSRGLLEEDFQKVAHFIHRGIELTLQIQSHMATKATLKEFKEKLAGDEKIQSAVATLREEVENFASNFSLPGLPDF | soluble
MGNFTFEEMNLMCIYNTGSRTGLIDSLREMRGELSPEETELRELTDSALTKLCAMTDEDFAQLELYPDFDQLEHHHHHH | soluble
MGSDKIHHHHHHMYTQDNVISNNKRLSSFQLSKMHTFEVAARHCSFSLAAEELSMTPSAISHRINALESELGILLFKRSHRKIELTKEGERIYIAVKSSFSSLNQEILEVKSNEISGELTVYSRPSFAQCWLVPRIAGFQKQYPAISLNILTGNENINFHGHGIDVAIYFDEKQPSKLYCQDIMTETIVPVCSPEYAEEFDLIGKINNLSQCTLLHDNQAWGYDSNTDEWALWANNFNINCLASSASIRFDRSDLAVIAAMNNAGVAMGRESFISNQIKRGELIKPFIDKKILCPQRYYVATLPNNKNTKIELFIEWLKNEVQNEGGESIV | not soluble
MGSDKIHHHHHHMPFDQGGIKMKPLLQTVDLKKYFPQGKRILKAVDGISIEIKEGETLGLVGESGCGKSTLGRTILKLLRPDGGKIFFEGKDITNLNDKEMKPYRKKMQIIFQDPLGSLNPQMTVGRIIEDPLIIHKIGTKKERRKRVEELLDMVGIGREFINSFPHEFSGGQQQRIGIARALALNPKFIVCDEPVSALDVSIQAQIIDLLEEIQQKMGISYLFIAHNLAVVEHISHKVAVMYLGKIVEYGDVDKIFLNPIHPYTRALLKSVPKIPWDGQKQRFYSLKGELPSPIDLPKGCRFQTRCTEKKAICFEKEPELTEVEKNHFVSCHLVRSYRG | not soluble
MNIEEAKKLIDKQSIGKGGVGDIPVVKTHIVKVLLDQIDQPQPEVPRFVADWYEKHKDSLECDLYLYHMSIYDEEVEKDDFYYWMQTSKNPVYTLINMHQFGYTIQKEKLYTVEIPNPNERQLSFVLMRQLSGNVSIKVMHRDNLDLLKTDNDLQLTESEIRKDFDWAWQFREEVVE | not soluble
MQRRGQLSRRLVNSADRDPSDENSLSRAPAPACTSRGTHVVETTSLKRHSKVLRSQDASGTAESVNSQTPDDEVDHTLWTLVREVSDAEAAFWALRNDSRLLGFVLRSQLLALVHDDSSVTDFLEAAQQPTDVGDVQAEFILCWVPVPGGPAILWRADYQRLIEEQVARRLSELEDPARKAALWGTTREQVERDTHIRAADGSCWLRTLPCPPSVIRALTQGQKALVQQVKRMGRYGRLPLHRAELLRLSRTCFSARFHILDAVGCGTLALDAQNTLSKEPYLCLPEVRTTNIVDSGEIGF | not soluble
MEKERYFQAETEGEQPETKAEEATAAITQLGQTNVPQMDPDTNIHCLTIVGQIEGHIQLPPQNKATKYEHVIPQIVAIEQNPKIEGLLVILNTVGGDVEAGLAIAEMLASLSKPTVSVVLGGGHSIGVPIAVSCNYSFITETATMTIHPIRLTGLVIGVPQTFEYLDKMQERVVRFVTKHSKISEEKFKELMFSKGNLTRDIGTNVVGPDAVRYGLIDEVGGVSQAMAKLRELIAMRKNGEGKMIQ | not soluble
MSLNLKKAELHVHLEGTISPELAKKLAKRNQLTLPNGLIAPDEKSYLSRDFLDFLKVYDTLASVIKNPQDYYDITFDYLKSNAQEHAIYIEMMYSPDHAEQSSGIPSKEHLAAIQQAIDDAKSQFDIVGRIIITAVRHFGVEACERVAKQASIDKFPCVTGFGLGGDEAKFPPQLFTKAYQIAADSGLECTVHAGEFDSAKGMEEAMKTLPIKRIGHGVRVIDSPDIMAMVKDQGIALEVCPTSNIFLGLFKDMNSHPFPKLYEAGIKVSINSDDPPFMSTTLAQEYKRVQKAYGYNNDTMNNITRMAIEAAFVDEKTRKELLTKLEQEGHHHHHH | soluble
